Source: patent publication US20230121197A1, “ANTIBODIES SPECIFICALLY BINDING THE CARBOXYMETHYLATED CATALYTIC SUBUNIT OF PROTEIN PHOSPHATASE 2A” (Medizinische Universität Wien, priority 2020, published 2023)

Target: T1, HA-tagged yeast PP2Ac (PPH21) (Saccharomyces cerevisiae, UniProt P23594)
T1 construct: expressed in transfected cells; host or cells: yeast BY4741 (wildtype, ppe1Δ, ppm1Δ)
Experiment: Western blot of yeast BY4741 strain lysates (wt, ppe1Δ, ppm1Δ, NaOH)
Type: binding
From the text: Yeast strain BY4741 expressing HA-tagged yeast PP2Ac (PPH21) was used as a background. Of note, the 6 C-terminal amino acids of mammalian/human PP2Ac are identical to the yeast PP2A catalytic subunit PPH21. The BY4741 wildtype (WT) strain contained carboxymethylated PP2Ac and non-carboxymethylated PP2Ac. The BY4741 ppe1Δ strain contained high levels of carboxymethylated PP2Ac because the ppe1 gene was deleted. The BY4741 ppm1Δ strain lacked carboxymethylated PP2Ac because the ppm1 gene was deleted. Said yeast strains were further used for the characterization of monoclonal antibodies, i.e. 7C10-C5, as described further below. […]
Yeast cells were grown at 30° C. to exponential growth phase in drop-out complete medium (2.3 g/l Bacto yeast nitrogen base [Difco, 233520], 20 mg/l adenine, 20 mg/l L-arginine, 15 mg/l L-tyrosine, 15 mg/l L-isoleucine, 25 mg/l L-phenylalanine, 50 mg/l L-glutamic acid, 50 mg/l L-aspartic acid, 100 mg/l L-threonine, 200 mg/l L-serine, 75 mg/l L-valine, 75 mg/l L-methionine, 90 mg/l L-lysine, 20 mg/l uracil, 30 mg/l L-histidine, 0.05 M ammoniumsulfate) lacking L-leucine and containing 2% w/v glucose. Yeast cells were collected by centrifugation at 3,500 rpm at 4° C. in a Beckmann GS-6R centrifuge, washed with ice-cold water and the optical density at 600 nm (0D^600) was measured in a Hitachi U-2000 spectrophotometer. […]

T1 sequence (P23594 whole entry): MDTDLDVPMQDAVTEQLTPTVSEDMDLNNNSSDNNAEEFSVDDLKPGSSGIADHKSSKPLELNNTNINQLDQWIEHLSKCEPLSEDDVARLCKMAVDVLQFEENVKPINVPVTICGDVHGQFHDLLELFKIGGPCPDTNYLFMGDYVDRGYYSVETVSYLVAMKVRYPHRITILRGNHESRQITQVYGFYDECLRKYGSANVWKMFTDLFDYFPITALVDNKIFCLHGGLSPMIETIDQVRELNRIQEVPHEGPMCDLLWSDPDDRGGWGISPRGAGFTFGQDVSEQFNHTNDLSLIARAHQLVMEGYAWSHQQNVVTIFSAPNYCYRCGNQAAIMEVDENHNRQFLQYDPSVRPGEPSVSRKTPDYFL

B1: 7C10-C5 monoclonal antibody (antibody, V domains shown)
VH: DVQLQESGPGLVKPSQSLSLTCSVTGYSITSGYYWNWIRQFPGNKLEWMGYISYDGSNNYNPSLKNRISITRDTSKNQFFLKLNSVTTEDTATYYCAGRFAYWGQGTLVTVSA
VL: DVLMTQTPLSLPVSLGDQASISCRSSQSIVHSNGNTYLEWYLQKPGQSPKLLIYKVSNRFSGVPDRFSGSGSGTDFTLKINRVEAEDLGVYYCFQGSHVPWTFGGGTKLEIK
notes: Used as hybridoma culture supernatant (ELISA, Western blot, IHC) or at 50 µg/mL (SPR); also called 7C10 X63; clone 7C10-C5
  detection of PP2Ac in ppe1Δ (carboxymethylated) versus ppm1Δ / NaOH treated (non-carboxymethylated) lysates: detected PP2Ac only in the BY4741 ppe1Δ strain

B2: 7C10-C5: α-carboxymethylation specific mouse monoclonal IgG1 antibody from single clone hybridoma 7C10-C5 (DSM ACC3350) (antibody)
heavy: MYRMQLLSCIALSLALVTNSDVQLQESGPGLVKPSQSLSLTCSVTGYSITSGYYWNWIRQFPGNKLEWMGYISYDGSNNYNPSLKNRISITRDTSKNQFFLKLNSVTTEDTATYYCAGRFAYWGQGTLVTVSAAKTTAPSVYPLAPVCGDTTGSSVTLGCLVKGYFPEPVTLTWNSGSLSSGVHTFPAVLQSDLYTLSSSVTVTSSTWPSQSITCNVAHPASSTKVDKKIEPRGPTIKPCPPCKCPAPNLLGGPSVFIFPPKIKDVLMISLSPIVTCVVVDVSEDDPDVQISWFVNNVEVHTAQTQTHREDYNSTLRVVSALPIQHQDWMSGKEFKCKVNNKDLPAPIERTISKPKGSVRAPQVYVLPPPEEEMTKKQVTLTCMVTDFMPEDIYVEWTNNGKTELNYKNTEPVLDSDGSYFMYSKLRVEKKNWVERNSYSCSVVHEGLHNHHTTKSFSRTPGK
light: MDMRVPAQLLGLLLLWLSGARCDVLMTQTPLSLPVSLGDQASISCRSSQSIVHSNGNTYLEWYLQKPGQSPKLLIYKVSNRFSGVPDRFSGSGSGTDFTLKINRVEAEDLGVYYCFQGSHVPWTFGGGTKLEIKADAAPTVSIFPPSSEQLTSGGASVVCFLNNFYPKDINVKWKIDGSERQNGVLNSWTDQDSKDSTYSMSSTLTLTKDEYERHNSYTCEATHKTSTSPIVKSFNRNEC
modifications: Amino acid sequence of the recombinant 7C10-C5 heavy chain; Amino acid sequence of the recombinant 7C10-C5 light chain
  detection of PP2Ac in ppe1Δ (carboxymethylated) versus ppm1Δ / NaOH treated (non-carboxymethylated) lysates: only detected carboxymethylated PP2Ac
